Reference: US20250388684A1 (published 2025)

Assays:
[1] = molecular target: T1, human CCR8 (C-C chemokine receptor type 8) (human, UniProt P51685 1-355); assay: FACS cell binding; human plasma 37°C 7 Day
[2] = molecular target: T1, human CCR8 (C-C chemokine receptor type …); assay: FACS cell binding; human plasma 37°C 14 Day
[3] = molecular target: T1, human CCR8 (C-C chemokine receptor type …); assay: FACS cell binding; Control

T1 sequence (P51685 whole entry): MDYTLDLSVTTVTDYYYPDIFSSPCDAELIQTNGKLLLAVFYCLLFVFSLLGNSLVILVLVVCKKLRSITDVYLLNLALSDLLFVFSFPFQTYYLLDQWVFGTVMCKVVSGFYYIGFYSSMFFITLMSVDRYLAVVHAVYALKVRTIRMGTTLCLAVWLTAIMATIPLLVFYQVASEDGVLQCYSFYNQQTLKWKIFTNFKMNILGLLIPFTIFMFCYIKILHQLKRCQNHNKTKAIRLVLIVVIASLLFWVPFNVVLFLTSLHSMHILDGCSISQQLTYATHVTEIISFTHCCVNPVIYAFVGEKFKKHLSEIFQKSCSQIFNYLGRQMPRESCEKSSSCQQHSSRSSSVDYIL

B1: 13F3H6-hz-eADCC (13F3H6-hz with ADCC-enhanced IgG1 Fc) (antibody)
heavy: EVQLVESGGGLVQPGESLRLSCAASGFTFNAYAMNWVRQAPGQGLEWVARIRTKSNNYATYYADSVKGRFTISRDDSKNTLYLEMNSLRAEDTAVYYCVRHKKVREGYAMDYWGQGTLVTVSSASTKGPSVFPLAPSSKSTSGGTAALGCLVKDYFPEPVTVSWNSGALTSGVHTFPAVLQSSGLYSLSSVVTVPSSSLGTQTYICNVNHKPSNTKVDKKVEPKSCDKTHTCPPCPAPELVGGPSVFLLPPKPKDTLMISRTPEVTCVVVDVSHEDPEVKFNWYVDGVEVHNAKTKPPEEQYNSTLRVVSVLTVLHQDWLNGKEYKCKVSNKALPAPIEKTISKAKGQPREPQVYTLPPSREEMTKNQVSLTCLVKGFYPSDIAVEWESNGQPENNYKTTPLVLDSDGSFFLYSKLTVDKSRWQQGNVFSCSVMHEALHNHYTQKSLSLSPGK
light: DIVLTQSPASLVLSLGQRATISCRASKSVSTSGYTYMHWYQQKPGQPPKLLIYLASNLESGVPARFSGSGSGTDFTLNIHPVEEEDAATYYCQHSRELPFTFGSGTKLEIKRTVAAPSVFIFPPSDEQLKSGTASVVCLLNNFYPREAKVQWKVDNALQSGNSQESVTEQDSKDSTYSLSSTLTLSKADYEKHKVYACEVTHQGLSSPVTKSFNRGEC
For B1, the EC50 [1] was 0.0425 µg/mL, the EC50 [2] was 0.039 µg/mL and the EC50 [3] was 0.035 µg/mL.
